Laboratory results from publication PMC4528719, “Functional role of dimerization and CP190 interacting domains of CTCF protein in Drosophila melanogaster” (BMC Biology, 2015).
Values belong to the molecule of their own block, whether it stands above or below them.

How the values were obtained:
[1] = target: T1, thioredoxin-tagged CP190-BTB (Drosophila); assay: cross-linking; CP190-BTB constant at 20 μM, alone or mixed with CTCF-CTD at stated molar ratios, 2 h (legend of Fig. 4b: 1 h) at room temperature, then glutaraldehyde; buffer B; SDS-PAGE, Coomassie or silver staining
T1 sequence (Q24478 whole entry, looked up): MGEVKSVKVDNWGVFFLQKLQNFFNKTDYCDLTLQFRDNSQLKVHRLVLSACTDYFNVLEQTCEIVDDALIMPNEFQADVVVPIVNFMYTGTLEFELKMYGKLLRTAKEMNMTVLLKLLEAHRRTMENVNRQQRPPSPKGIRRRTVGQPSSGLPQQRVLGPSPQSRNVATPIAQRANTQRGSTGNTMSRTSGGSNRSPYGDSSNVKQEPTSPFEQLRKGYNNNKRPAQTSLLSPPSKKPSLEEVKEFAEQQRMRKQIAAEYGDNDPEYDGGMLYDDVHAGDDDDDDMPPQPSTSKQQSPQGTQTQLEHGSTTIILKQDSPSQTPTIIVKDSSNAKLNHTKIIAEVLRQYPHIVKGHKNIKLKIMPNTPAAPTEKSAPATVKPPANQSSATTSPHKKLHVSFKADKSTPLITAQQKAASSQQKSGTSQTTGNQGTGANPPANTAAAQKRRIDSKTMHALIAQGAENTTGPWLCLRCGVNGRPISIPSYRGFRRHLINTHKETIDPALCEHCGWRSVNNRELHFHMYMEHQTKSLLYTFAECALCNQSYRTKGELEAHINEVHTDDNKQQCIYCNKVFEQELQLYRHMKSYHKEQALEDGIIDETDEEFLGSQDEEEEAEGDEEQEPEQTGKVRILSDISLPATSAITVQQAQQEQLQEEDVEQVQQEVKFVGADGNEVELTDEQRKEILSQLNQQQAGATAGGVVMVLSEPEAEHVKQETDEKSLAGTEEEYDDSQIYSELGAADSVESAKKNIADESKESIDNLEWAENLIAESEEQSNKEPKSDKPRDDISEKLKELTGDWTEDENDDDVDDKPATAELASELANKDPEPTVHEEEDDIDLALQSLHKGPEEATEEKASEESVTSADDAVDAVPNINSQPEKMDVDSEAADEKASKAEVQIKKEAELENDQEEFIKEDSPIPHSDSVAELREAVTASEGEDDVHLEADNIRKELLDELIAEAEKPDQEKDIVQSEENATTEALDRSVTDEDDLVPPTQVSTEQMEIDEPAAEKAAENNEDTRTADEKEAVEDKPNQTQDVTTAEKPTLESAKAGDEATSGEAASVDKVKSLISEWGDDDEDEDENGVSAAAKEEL

[2] = target: the molecule itself; assay: cross-linking; one protein alone at 5 μM, increasing glutaraldehyde, 10 min at room temperature, 20 mM HEPES-KOH pH 7.7, 150 mM NaCl, 20 mM imidazole, 1 mM β-mercaptoethanol; SDS-PAGE, silver staining
[3] = target: T2, dCTCF–CTD 612–818 protein (Drosophila melanogaster, UniProt Q9VS55 612-818); assay: pull-down; GST–CP190 fragments on glutathione agarose, recombinant dCTCF-CTD in solution; 2 h room temperature, buffer C; washes with 500 mM NaCl (Fig. 3f); conditions: both partners purified
T2 construct: also called CTD protein; source: E. coli BL21, purified (Ni-NTA)
T2 sequence (looked up): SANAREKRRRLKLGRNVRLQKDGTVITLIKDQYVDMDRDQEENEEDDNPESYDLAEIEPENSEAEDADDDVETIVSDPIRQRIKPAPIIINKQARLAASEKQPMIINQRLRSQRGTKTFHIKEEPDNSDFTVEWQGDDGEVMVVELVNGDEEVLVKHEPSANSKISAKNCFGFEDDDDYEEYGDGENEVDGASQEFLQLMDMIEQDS

- stoichiometry N [1]: 2
Molecule: thioredoxin-tagged CP190-BTB (domain or fragment)

B1: thioredoxin-tagged dCTCF NTD 1–163 (domain or fragment, Drosophila melanogaster, UniProt Q9VS55 1-163, looked up)
chain: MPRRTKKDEDPEDLQTFLNNFHKEIEGNSDEKVVNTILEAISAEAIDLDENGAEAGGSKPMEEAEADLDHAEEAEEEEEDDEDKYFIDDEGNCYIKTTPKKQKELQKKLKQAAAKPGKATRSVVSTATNKSINLRPAKSTPKATTSKPPPEPKAISVRPARAA
notes: dCTCF, Drosophila melanogaster, residues 1-163; pET32a(+) vector; purified on Ni-NTA, so a His tag is likely present; source: E. coli BL21, purified (Ni-NTA)
- stoichiometry N [2]: ~4

- binding result [3]: binds
B2: GST–CP190 BTB domain (1–126) (domain or fragment, Drosophila, UniProt Q24478 1-126, looked up)
chain: MGEVKSVKVDNWGVFFLQKLQNFFNKTDYCDLTLQFRDNSQLKVHRLVLSACTDYFNVLEQTCEIVDDALIMPNEFQADVVVPIVNFMYTGTLEFELKMYGKLLRTAKEMNMTVLLKLLEAHRRTM

B3: thioredoxin NTD 1–205 fusion protein of dCTCF (domain or fragment, Drosophila melanogaster, UniProt Q9VS55 1-205, looked up)
chain: MPRRTKKDEDPEDLQTFLNNFHKEIEGNSDEKVVNTILEAISAEAIDLDENGAEAGGSKPMEEAEADLDHAEEAEEEEEDDEDKYFIDDEGNCYIKTTPKKQKELQKKLKQAAAKPGKATRSVVSTATNKSINLRPAKSTPKATTSKPPPEPKAISVRPARAAAAKAKQSAMPPPPALVVKVPAPRGRPRKNPVIPKPEPMDLER
notes: pET32a(+) vector; purified on Ni-NTA, so a His tag is likely present; source: E. coli BL21, purified (Ni-NTA)
- binding result [2]: binds

- stoichiometry N [1]: 2 BTB per CTD
B4: dCTCF–CTD 612–818 protein (domain or fragment)
chain: SANAREKRRRLKLGRNVRLQKDGTVITLIKDQYVDMDRDQEENEEDDNPESYDLAEIEPENSEAEDADDDVETIVSDPIRQRIKPAPIIINKQARLAASEKQPMIINQRLRSQRGTKTFHIKEEPDNSDFTVEWQGDDGEVMVVELVNGDEEVLVKHEPSANSKISAKNCFGFEDDDDYEEYGDGENEVDGASQEFLQLMDMIEQDS

B5: dCTCF NTD 70–163 (domain or fragment, Drosophila melanogaster, UniProt Q9VS55 70-163, looked up)
chain: HAEEAEEEEEDDEDKYFIDDEGNCYIKTTPKKQKELQKKLKQAAAKPGKATRSVVSTATNKSINLRPAKSTPKATTSKPPPEPKAISVRPARAA
notes: dCTCF, Drosophila melanogaster, residues 70-163; source: E. coli BL21, purified (Ni-NTA)
- binding result [2]: binds

B6: dCTCF NTD 125–180 (domain or fragment, Drosophila melanogaster, UniProt Q9VS55 125-180, looked up)
chain: STATNKSINLRPAKSTPKATTSKPPPEPKAISVRPARAAAAKAKQSAMPPPPALVV
notes: dCTCF, Drosophila melanogaster, residues 125-180; source: E. coli BL21, purified (Ni-NTA)
- binding result [2]: binds
